The text below walks through data of paper PMC3230590, “Structure of the Bro1 Domain Protein BROX and Functional Analyses of the ALIX Bro1 Domain in HIV-1 Budding” (PLoS ONE, 2011).

Test [1] deals with CHMP4B 205-224 (Homo sapiens) (UniProt Q9H444). As to conditions: cited from earlier work.
The next test addresses T1, human BROX(1-401) (human, UniProt Q5VW32 1-401).
T1 construct: BROX, human, residues 1-401; lacks the 10 C-terminal residues 402-411 with the farnesylated Cys408; Residues of the vector may remain after TEV cleavage (surmise); also called wild type BROX; recombinant human BROX; not shown: His6, N-terminal, cleaved
T1 sequence (looked up): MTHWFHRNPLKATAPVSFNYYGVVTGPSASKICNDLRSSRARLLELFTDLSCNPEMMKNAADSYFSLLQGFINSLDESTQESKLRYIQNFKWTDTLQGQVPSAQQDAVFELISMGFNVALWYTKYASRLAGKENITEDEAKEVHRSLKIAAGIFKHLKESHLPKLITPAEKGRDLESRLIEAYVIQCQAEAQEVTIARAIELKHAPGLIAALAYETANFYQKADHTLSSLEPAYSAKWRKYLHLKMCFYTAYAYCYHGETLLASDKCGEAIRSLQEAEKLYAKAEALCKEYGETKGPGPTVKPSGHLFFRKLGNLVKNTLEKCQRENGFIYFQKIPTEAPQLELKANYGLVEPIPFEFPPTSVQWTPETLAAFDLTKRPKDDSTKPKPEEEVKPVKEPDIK
Kind of test: SPR; Biacore 2000; CM5 chip with amine-coupled anti-GST antibody capturing GST-CHMP4B(205-224) or GST alone from crude E. coli lysates; pure BROX proteins injected in triplicate, 1.5-fold dilution series from 400 µM; equilibrium responses fit to 1:1 isotherms. As to conditions: both partners purified. Background: SPR reads the build-up and loss of mass on a sensor chip optically.

Turning to ALIX Bro1 (from UniProt Q8WUM4), the Kd – broadly, a measure of binding affinity in units of concentration – in test [1] is 48 µM.

B1: GST-CHMP4B(205-224) (domain or fragment, UniProt Q9H444 205-224, looked up)
chain: KKKEEEDDDMKELENWAGSM
notes: also called C-terminal fragment from CHMP4B; source: E. coli, captured from crude expression lysates on an anti-GST antibody sensor chip
With B1, in the test with human BROX(1-401), binding was characterised by a dissociation constant (Kd) of 98 ± 22 µM.
